Laboratory results: publication PMC2947466
Substitutions are numbered along the chain they refer to. Numbers in names are those of the source.

B1: spastin MIT domain, purified (domain or fragment)
chain: HKQAFEYISIALRIDEDEKAGQKEQAVEWYKKGIEELEKGIAVIVTGQGEQCERARRLQAKMMTNLVMAKDRLQLL
B2: spastin F124D MIT domain, purified (domain or fragment)
chain: B1 chain with F5D
B3: spartin MIT domain (residues 1-107), purified (domain or fragment)
chain: MEQEPQNGEPAEIKIIREAYKKAFLFVNKGLNTDELGQKEEAKNYYKQGIGHLLRGISISSKESEHTGPGWESARQMQQKMKETLQNVRTRLEILEKGLATSLQNDL

Each binder was assayed against GST-Ist1-CTR (residues 296-335) (human) (assay: SPR).

Binder | Kd
B1 | 4.6 µM
B2 | 471 µM
B3 | 10.4 µM
